Data: PMC8354326

Key:
[1] = target: 2G12; test: ELISA; details: parent: 1.0
[2] = target: PGT145; test: ELISA; details: parent: 1.0

Substance	ratio to parent [1]	ratio to parent [2]
AMC008 SOSIP.v4.2 Env trimer N624D	0.8	0.9
AMC008 SOSIP.v4.2 Env trimer N637Q	0.9	0.8
AMC008 SOSIP.v4.2 Env trimer K236T	0.9	1
AMC008 SOSIP.v4.2 Env trimer K232T	0.9	1
AMC008 SOSIP.v4.2 Env trimer D620N	0.9	1.5
AMC008 SOSIP.v4.2 Env trimer N611Q	0.8	0.8
AMC008 SOSIP.v4.2 Env trimer N616Q	0.9	0.9
AMC008 SOSIP.v4.2 Env trimer K232T; K236T	0.9	0.9
AMC008 SOSIP.v4.2 Env trimer E662A	0.9	1.1
AMC008 SOSIP.v4.2 Env trimer N88Q	0.8	0.8
